Measured values: US20260056186A1 (JIANGSU HENGRUI PHARMACEUTICALS, published 2026)
One block for each binder: values may come before it.

Columns and labels:
[1] = biological target: T1, BAFF (PeproTech, Cat: 310-13) (UniProt Q9Y275 134-285); test: ELISA, BAFF coated at 1 ug/mL, anti-human Fc-HRP, OD450
Method: (§1) The capabilities of TACI-BCMA fusion proteins (B575701, B575702, B575703, and B575704) to bind to BAFF and APRIL were assessed by ELISA as follows: BAFF (PeproTech, Cat: 310-13) or ARPIL (Acro Biosystems, Cat: APL-H52D1) was diluted to 1 μg/mL with PBS, and a 96-well plate (Costar, Cat: 3590) was coated with the dilution overnight at 4° C. The plate was washed with PBST and blocked with Blocking Buffer (PBST containing 1% BSA) at 37° C. for 1 h. The plate was tapped. The test antibodies were diluted with Blocking Buffer. Incubation was performed at 37° C. for 1.5 h. The plate was washed with PBST. An HRP-mouse anti-human Fc antibody (GenScript, Cat: A01854-200) was diluted with Blocking Buffer. Incubation was performed at 37° C. for 40 min. The plate was washed with PBST. 100 μL of TMB substrate solution (Biopanda, Cat: TMB-S-003) was added, and color development was performed at 37° C. for 3 min. 100 μL of ELISA stop solution (Solarbio, Cat: C1058) was added. OD450 was measured.
(§2) The capability of B575702 to bind to BAFF was consistent with that of B575704, and their EC₅₀ values decreased to ¼ of that of telitacicept. The capability of B575701 to bind to BAFF was consistent with that of B575703, and their EC₅₀ values decreased to ½ of that of telitacicept.

[2] = biological target: T2, APRIL (Acro Biosystems, Cat: APL-H52D1) (UniProt O75888 115-250, limits assumed); test: ELISA, APRIL coated at 1 ug/mL, anti-human Fc-HRP, OD450
T2 construct: also called ARPIL
T2 sequence (looked up): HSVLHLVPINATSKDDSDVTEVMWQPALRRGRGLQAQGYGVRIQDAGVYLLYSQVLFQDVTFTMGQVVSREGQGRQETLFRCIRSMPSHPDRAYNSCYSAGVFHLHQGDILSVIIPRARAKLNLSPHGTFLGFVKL
Method: as §1
(§3) The capabilities of the 4 fusion proteins to bind to APRIL were all stronger than that of telitacicept, and their EC₅₀ values decreased to ¼ to ⅓ of that of telitacicept.

[3] = biological target: T2, APRIL (Acro Biosystems, Cat: APL-H52D1); test: ELISA, APRIL coated; reference telitacicept; range told of the 4 fusion proteins, upper end tied to B575703 by Table 5
Method: as §1, §3

[4] = biological target: T1, BAFF (PeproTech, Cat: 310-13); test: ELISA, BAFF coated; reference telitacicept
Method: as §1, §2

[5] = biological target: T2, APRIL (Acro Biosystems, Cat: APL-H52D1); test: ELISA, APRIL coated; reference telitacicept; range told of the 4 fusion proteins, lower end tied to B575702 by Table 5
Method: as §1, §3

EC50 [1]: 0.352 nM
Emax [1]: 2.43 nM (as printed)
EC50 [2]: 0.264 nM
Emax [2]: 2.78
EC50 relative to telitacicept [3]: 0.333 fold
EC50 relative to telitacicept [4]: 0.5 fold
B1: B575703 (Fc fusion)
chain: SRVDQEERFPQGLWTGVAMRSCPEEQYWDPLLGTCMSCKTICNHQSQRTCAAFCRSLSCRKEQGKFYDHLLRDCISCASICGQHPKQCAYFCENKLRSPVNLPPELMLQMAGQCSQNEYFDSLLHACIPCQLRCSSNTPPLTCQRYCNASVTNSVKGTNADKTHTCPPCPAPEAEGAPSVFLFPPKPKDTLMISRTPEVTCVVVDVSHEDPEVKFNWYVDGVEVHNAKTKPREEQYNSTYRVVSVLTVLHQDWLNGKEYKCKVSNKALPSSIEKTISKAKGQPREPQVYTLPPSRDELTKNQVSLTCLVKGFYPSDIAVEWESNGQPENNYKTTPPVLDSDGSFFLYSKLTVDKSRWQQGNVFSCSVMHEALHNHYTQKSLSLSPGK
notes: TACI-BCMA fusion protein; also called TACI-T2-BCMA-ECD-Fc

EC50 [1]: 0.166 nM
Emax [1]: 2.24 nM (as printed)
EC50 relative to telitacicept [5]: 0.25 fold
EC50 [2]: 0.171 nM
Emax [2]: 2.64
EC50 relative to telitacicept [4]: 0.25 fold
B2: B575702 (Fc fusion)
chain: MLQMAGQCSQNEYFDSLLHACIPCQLRCSSNTPPLTCQRYCNASVTNSVKGTNALSCRKEQGKFYDHLLRDCISCASICGQHPKQCAYFCENKLRSPGDKTHTCPPCPAPEAEGAPSVFLFPPKPKDTLMISRTPEVTCVVVDVSHEDPEVKFNWYVDGVEVHNAKTKPREEQYNSTYRVVSVLTVLHQDWLNGKEYKCKVSNKALPSSIEKTISKAKGQPREPQVYTLPPSRDELTKNQVSLTCLVKGFYPSDIAVEWESNGQPENNYKTTPPVLDSDGSFFLYSKLTVDKSRWQQGNVFSCSVMHEALHNHYTQKSLSLSPGK
notes: TACI-BCMA fusion protein; also called BCMA-ECD-TACI-d2-Fc
